# From publication PMC8911475, “Insight into the Phylogeny and Binding Ability of WRKY Transcription Factors”
# T1: WRKY54 DBD (Arabidopsis thaliana, UniProt Q93WU8 133-224)
# T1 sequence: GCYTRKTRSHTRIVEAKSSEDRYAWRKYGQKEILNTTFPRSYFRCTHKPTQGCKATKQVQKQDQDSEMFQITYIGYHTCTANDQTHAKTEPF
# B1: W3 (dsDNA)
# DNA 1: TTAACTTGACCCAA
# DNA 2: TTGGGTCAAGTTAA
# B2: T13 (dsDNA)
# DNA 1: ATTTGTTGACTAG
# DNA 2: CTAGTCAACAAAT
# B3: T8 (dsDNA)
# DNA 1: GTTGACTA
# DNA 2: TAGTCAAC
# B4: W1 (dsDNA)
# DNA 1: TGTCCTTGACTACA
# DNA 2: TGTAGTCAAGGACA
# B5: W2 (dsDNA)
# DNA 1: GTTATTTGACCACC
# DNA 2: GGTGGTCAAATAAC
# B6: T6 (dsDNA)
# DNA 1: TTGACT
# DNA 2: AGTCAA
# B7: T12 (dsDNA)
# DNA 1: ATTTGTTGACTA
# DNA 2: TAGTCAACAAAT
# B8: W4 (dsDNA)
# DNA 1: ATTTGTTGACTAGG
# DNA 2: CCTAGTCAACAAAT
# B9: T12a (dsDNA)
# DNA 1: TTGTTGACTAGG
# DNA 2: CCTAGTCAACAA
# B10: T10 (dsDNA)
# DNA 1: GTTGACTAGG
# DNA 2: CCTAGTCAAC
# Assays:
# WRKY54 DBD [1] = biological target: T1, WRKY54 DBD; assay: EMSA; QCM: 30 mM HEPES pH 7.5, 0.5 M NaCl, 2 mM TCEP, 25 °C, biotin-dsDNA on avidin; fEMSA: 30 min incubation in the dark, native PAGE 4 °C 120 V 90 min, buffer not stated; conditions: protein: recombinant, tags: N-term MBP + thrombin site, C-term 12xHis
# WRKY54 DBD [2] = biological target: T1, WRKY54 DBD; assay: QCM; text also gives 68 ± 11.73 pM for T13 (inconsistent); QCM: 30 mM HEPES pH 7.5, 0.5 M NaCl, 2 mM TCEP, 25 °C, biotin-dsDNA on avidin; fEMSA: 30 min incubation in the dark, native PAGE 4 °C 120 V 90 min, buffer not stated; conditions: protein: recombinant; tags: N-term MBP + thrombin site; C-term 12xHis; label: 5' fluorescein (fEMSA); 5' biotin (QCM)
# WRKY54 DBD [3] = biological target: T1, WRKY54 DBD; assay: QCM; QCM: 30 mM HEPES pH 7.5, 0.5 M NaCl, 2 mM TCEP, 25 °C, biotin-dsDNA on avidin; fEMSA: 30 min incubation in the dark, native PAGE 4 °C 120 V 90 min, buffer not stated; conditions: protein: recombinant; tags: N-term MBP + thrombin site; C-term 12xHis; label: 5' fluorescein (fEMSA); 5' biotin (QCM)
# [4] = label: 5' fluorescein (fEMSA), 5' biotin (QCM)
Binder,binding result (WRKY54 DBD [1]; label: 5' fluorescein),binding result (WRKY54 DBD [1]; [4]),Kd (WRKY54 DBD [3]) [nM],further results
B1,no binding,,,
B2,,,,Kd (WRKY54 DBD [2]): 0.192 ± 0.0225 nM
B3,,no binding,,
B4,no binding,,,
B5,no binding,,,
B6,,no binding,,
B7,,,2.19 ± 0.442,
B8,,,0.163 ± 0.0101,
B9,,,0.047 ± 0.0062,
B10,,no binding,,
